Target: IL-21-Fc
Experiment: SPR

B1: hIL-21 receptor (receptor)
chain: not shown
For B1, the Kd was 1.68 pM.
